# Measurements: US8900593B2 (Indiana University Research and Technology Corporation, priority 2007, dated 2014)
# Like-named read-outs stand apart in the source and are kept apart here. Where no end group is shown, it is not given here. [ ]: non-standard residue; d: D form. The star is where a group is joined. Isobutyryl(2-imidazol-4-yl) = CC(C)(C(=O)*)c1c[nH]cn1; DMIA = not defined here; PEG = not defined here; Aib = CC(C)(N)C(=O)O
# Experiments:
# glucagon receptor = molecular target: T1, glucagon receptor (Homo sapiens, UniProt P47871); experiment: Functional assay-cAMP synthesis, luciferase reporter in HEK293 cells co-transfected with glucagon receptor; assay type: cell-based; conditions: for Parent w/PEG % Potency Relative to Native GR / Parent w/o PEG % Potency Relative to Native GR: Table 12; for Parent w/PEG % Potency Relative to Native GR: pegylated peptide; for Parent w/o PEG % Potency Relative to Native GR: peptide without PEG
# T1 construct: expressed in transfected cells; host or cells: HEK293
# GLP-1 receptor = molecular target: T2, GLP-1 receptor (Homo sapiens, UniProt P43220); experiment: Functional assay-cAMP synthesis, luciferase reporter in HEK293 cells co-transfected with GLP-1 receptor; assay type: cell-based
# T2 construct: expressed in transfected cells; host or cells: HEK293
# [1] = Glucagon Receptor EC50(nM), Table 10, GLP-1 17-26 glucagon analogs
# T1 sequence (P47871 26-477): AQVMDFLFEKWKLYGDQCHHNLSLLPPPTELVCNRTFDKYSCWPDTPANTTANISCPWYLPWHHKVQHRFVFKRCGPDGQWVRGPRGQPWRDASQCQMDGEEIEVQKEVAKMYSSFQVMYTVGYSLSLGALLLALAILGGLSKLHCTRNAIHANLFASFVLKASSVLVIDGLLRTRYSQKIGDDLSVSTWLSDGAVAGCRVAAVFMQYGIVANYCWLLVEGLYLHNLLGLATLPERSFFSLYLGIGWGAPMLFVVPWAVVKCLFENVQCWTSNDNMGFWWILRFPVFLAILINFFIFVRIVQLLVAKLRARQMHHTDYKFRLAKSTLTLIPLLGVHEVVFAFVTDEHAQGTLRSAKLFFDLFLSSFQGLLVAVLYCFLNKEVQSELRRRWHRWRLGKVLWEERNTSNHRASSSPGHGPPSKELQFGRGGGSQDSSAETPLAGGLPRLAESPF
# T2 sequence (P43220 24-463, species assumed): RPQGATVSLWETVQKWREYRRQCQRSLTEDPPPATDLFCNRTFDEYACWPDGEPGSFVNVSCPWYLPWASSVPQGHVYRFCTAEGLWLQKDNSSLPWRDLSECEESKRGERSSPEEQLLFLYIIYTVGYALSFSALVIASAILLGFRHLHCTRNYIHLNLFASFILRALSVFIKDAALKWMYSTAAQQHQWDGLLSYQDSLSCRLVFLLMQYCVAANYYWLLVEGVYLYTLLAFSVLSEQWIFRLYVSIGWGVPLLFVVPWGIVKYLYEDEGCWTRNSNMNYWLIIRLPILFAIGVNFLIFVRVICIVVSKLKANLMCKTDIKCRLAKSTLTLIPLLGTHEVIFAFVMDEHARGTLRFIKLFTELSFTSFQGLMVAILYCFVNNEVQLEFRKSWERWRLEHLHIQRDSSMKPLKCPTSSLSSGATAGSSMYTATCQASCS
"Parent w/PEG % Potency Relative to Native GLP-1R (GLP-1 receptor; Table 12, pegylated peptide) [%]",Substance,Parent w/PEG % Potency Relative to Native GR (glucagon receptor) [%],Parent w/o PEG % Potency Relative to Native GR (glucagon receptor) [%],Parent w/PEG % Potency Relative to Native GLP-1R (GLP-1 receptor) [%],Parent w/o PEG % Potency Relative to Native GLP-1R (GLP-1 receptor) [%],further results
–,"HSQGTFTSDYSKYLDEQAAKEFIAWLVKG-NH2 [E16 GLP(17-29)-NH2, HSQGTFTSDYSKYLDEQAAKEFIAW LVKGa]",–,–,–,–,EC50 (glucagon receptor; [1]): 0.46 nM; EC50 (GLP-1 receptor): 0.01 nM
–,"HSQGTFTSDYSKYLDEQAAKEFIEWLVKG-NH2 [E16 GLP(17-29)-NH2 E24, K28]",–,–,–,–,EC50 (glucagon receptor; [1]): 0.23 nM; EC50 (GLP-1 receptor): 0.007 nM
–,HSQGTFTSDYSKYLDSRRAQDFVQWLVKGGPSSGAPPPS-NH2 [-VKGG^30 PSSGAPPPS (SEQ ID NO: 524)],–,–,–,–,"EC50 (glucagon receptor): 1.16 nM; Glucagon Receptor Relative Potency (%) (glucagon receptor; Table 11, relative to glucagon (SEQ ID NO: 1) = 100): 7%; EC50 (GLP-1 receptor): 0.21 nM; GLP 1 Receptor Relative Potency (%) (GLP-1 receptor; Table 11, relative to GLP-1-VKGG30 (SEQ ID NO: 527) = 100): 12%"
54.3,"HX2QGT FTSDYSKYLDEQAAKEFIAWLMNC*a (H[Aib]QGTFTSDYSKYLDEQAAKEFIAWLMNC-NH2; also: optional PEG on Cys29) [Chimera AIB2, Cys29 (SEQ ID NO: 487), X2=AIB; C* is Cys or Cys attached to PEG]",5.6,20.1,–,–,"Parent w/o PEG % Potency Relative to Native GLP-1R (GLP-1 receptor; Table 12, peptide without PEG): 124.6%"
–,HX2QGT FTSDYSKYLDEQAAKEFIAWLMNGGPSSGAPPPSC*a (H[Aib]QGTFTSDYSKYLDEQAAKEFIAWLMNGGPSSGAPPPSC-NH2; lactam (positions not given here); also: optional PEG on Cys40) [X2=AIB; C* is Cys or Cys attached to PEG],3.2,14.2,63.6,169.6,–
–,HX2QGT FTSDY SKYLD EQAAK EFIC*W LMNGG PSSGA PPPSa (H[Aib]QGTFTSDYSKYLDEQAAKEFICWLMNGGPSSGAPPPS-NH2; lactam (positions not given here); also: optional PEG on Cys24) [X2=AIB; C* is Cys or Cys attached to PEG],1.4,25.2,96.4,381.5,–
–,HX2QGT FTSDY SKYLD EQAAK EFIC*W LMNTa,9.2,114.2,38.0,230.4,–
82.5,"HX2QGT FTSDY SKYLD EQAAK EFIC*W LMNTa [Chimera AIB2, Cys24 (SEQ ID NO: 486)]",2.6,15.4,–,–,"Parent w/o PEG % Potency Relative to Native GLP-1R (GLP-1 receptor; Table 12, peptide without PEG): 160.6%"
73.5,"HX2QGT FTSDY SKYLD ERAAK DFVC*W LMNTa (H[Aib]QGTFTSDYSKYLDERAAKDFVC(PEG)WLMNT-NH2; reading uncertain) [E16, K20AIB2, A18 Cys24 (SEQ ID NO: 492), X2=AIB; C* is Cys attached to PEG in the tested form]",1.1,–,–,–,–
–,HX2QGT FTSDY SKYLD ERRAK DFVC*W LMNTa (H[Aib]QGTFTSDYSKYLDERRAKDFVCWLMNT-NH2; lactam (positions not given here); also: optional PEG on Cys24) [X2=AIB; C* is Cys or Cys attached to PEG],15.8,108.3,31.0,96.9,–
–,X1SQGT FTSDY SKYLD EQAAK EFIC*W LMNTa,19.1,160.7,12.5,82.5,–
–,X1SQGT FTSDY SKYLD ERRAK DFVC*W LMNGG PSSGA PPPSa ([DMIA]SQGTFTSDYSKYLDERRAKDFVCWLMNGGPSSGAPPPS-NH2; lactam (positions not given here); not fully specified; reading uncertain) [X1=DMIA; C* is Cys or Cys attached to PEG],12.6,116.0,11.3,78.3,–
27.3,"X1SQGT FTSDYSKYLD EQAAK EFIAW LMNC*a ([Isobutyryl(2-imidazol-4-yl)]SQGTFTSDYSKYLDEQAAKEFIAWLMNC(PEG)-NH2; reading uncertain) [Chimera DMIA1, Cys29 (SEQ ID NO: 520), X1=DMIA; C* is Cys attached to PEG in the tested form]",5.3,–,–,–,–
19.3,"X1SQGT FTSDYSKYLD EQAAK EFIC*W LMNTa [Chimera DMIA1, Cys24 (SEQ ID NO: 519)]",6.9,28.9,–,–,"Parent w/o PEG % Potency Relative to Native GLP-1R (GLP-1 receptor; Table 12, peptide without PEG): 64.5%"

Substance,"Parent w/PEG % Potency Relative to Native GLP-1R (GLP-1 receptor; Table 12, pegylated peptide) [%]",Parent w/PEG % Potency Relative to Native GR (glucagon receptor) [%],Parent w/o PEG % Potency Relative to Native GR (glucagon receptor) [%],Parent w/PEG % Potency Relative to Native GLP-1R (GLP-1 receptor) [%],Parent w/o PEG % Potency Relative to Native GLP-1R (GLP-1 receptor) [%],further results
HX2QGT FTSDYSKYLDEQAAKEFIAWLMNGGPSSGAPPPSC*a (H[Aib]QGTFTSDYSKYLDEQAAKEFIAWLMNGGPSSGAPPPSC-NH2; also: optional PEG on Cys40) [X2=AIB; C* is Cys or Cys attached to PEG],68.8,0.3,2.2,–,–,"Parent w/o PEG % Potency Relative to Native GLP-1R (GLP-1 receptor; Table 12, peptide without PEG): 359.1%"
HX2QGT FTSDY SKYLD EQAAK EFIC*W LMNGG PSSGA PPPSa (H[Aib]QGTFTSDYSKYLDEQAAKEFICWLMNGGPSSGAPPPS-NH2; also: optional PEG on Cys24) [X2=AIB; C* is Cys or Cys attached to PEG],95.4,0.2,2.5,–,–,"Parent w/o PEG % Potency Relative to Native GLP-1R (GLP-1 receptor; Table 12, peptide without PEG): 457.8%"
HX2QGT FTSDY SKYLD ERAAK DFVC*W LMNGG PSSGA PPPSa (H[Aib]QGTFTSDYSKYLDERAAKDFVC(PEG)WLMNGGPSSGAPPPS-NH2; reading uncertain) [X2=AIB; C* is Cys attached to PEG in the tested form],88.5,0.1,–,–,–,–
